According to PMC5141474, “Diverse specificity of cellulosome attachment to the bacterial cell surface” (Scientific Reports, 2016):

T1: C. thermocellum ScaF Coh (type-II cohesin of anchoring scaffoldin ScaF), expressed on its own (Clostridium thermocellum, UniProt P71143 29-200)
T1 construct: single type-II cohesin of anchoring scaffoldin ScaF of Clostridium thermocellum (the Coh of PDB 2b59 and 2bm3); also called CohScaF; source: E. coli BL21 (DE3), pET28a, purified (IMAC)
T1 sequence (looked up): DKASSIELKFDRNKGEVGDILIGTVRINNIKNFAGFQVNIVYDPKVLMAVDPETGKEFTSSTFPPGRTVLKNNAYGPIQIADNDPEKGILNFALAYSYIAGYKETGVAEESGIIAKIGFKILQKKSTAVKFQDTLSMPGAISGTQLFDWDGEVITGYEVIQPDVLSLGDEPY

B1: C. thermocellum CipB XDoc (X-module and type-II dockerin of CipB), expressed on its own (domain or fragment, Clostridium thermocellum)
chain: NNDSTDKTTVSGYISVDFDYPPESESKIKSGFNVKVAGTELSTKTDEKGYFEISGIPGDMREFTLEISKRNYLKRNVTVNGTGKLVVSTEDNPLILWAGDVERKGVQDNAINMVDVMEISKVFGTRAGDEEYVAELDLNMDGAINLFDIAIVIRHFNALPSRY
notes: CipB (ORF Cthe_1806, 2177 amino acids) of Clostridium thermocellum: X-module and C-terminal type-II dockerin (XDoc); numbers count on: the recombinant XDoc chain (X-module 1-98, Doc 99-164); also called XDocCipB; CipB type-II Doc; source: E. coli Tuner (DE3), pET21a, purified (IMAC)

Columns and labels:
Assay in all cases: ITC; VP-ITC, 318.15 K; Doc in the cell, Coh injected (28 x 10 uL); single site-binding model; proteins in 50 mM HEPES pH 7.5, 2 mM CaCl2, 0.5 mM TCEP
[1] = target: C. thermocellum CipB XDoc I154A (Clostridium thermocellum)
[2] = target: C. thermocellum CipB XDoc M114A (Clostridium thermocellum)
[3] = target: C. thermocellum CipB XDoc S121A (Clostridium thermocellum)
[4] = target: C. thermocellum CipB XDoc (X-module and type-II dockerin of CipB), expressed on its own (Clostridium thermocellum) (UniProt A3DGE8)
[5] = target: C. thermocellum CipB XDoc F148A (Clostridium thermocellum)
[6] = target: C. thermocellum CipB XDoc M118A (Clostridium thermocellum)
[7] = target: T1, C. thermocellum ScaF Coh (type-II …); conditions: both partners purified

| Molecule | Ka [1] [M⁻¹] | dH [1] [kcal/mol] | stoichiometry N [1] | dH [2] [kcal/mol] | dH [3] [kcal/mol] | Ka [4] [M⁻¹] | dH [4] [kcal/mol] | Ka [5] [M⁻¹] | dH [5] [kcal/mol] | stoichiometry N [5] | dH [6] [kcal/mol] | Ka [2] [M⁻¹] | stoichiometry N [2] | Ka [3] [M⁻¹] | stoichiometry N [3] | stoichiometry N [4] | Ka [6] [M⁻¹] | stoichiometry N [6] | Ka [7] [M⁻¹] |
| --- | --- | --- | --- | --- | --- | --- | --- | --- | --- | --- | --- | --- | --- | --- | --- | --- | --- | --- | --- |
| C. thermocellum ScaC2 Coh (type-II cohesin of anchoring scaffoldin ScaC), expressed on its own (domain or fragment) | 1.2e+06 | -9.75 | 1.02 | -10.4 | -10.3 | > 1e+09 | -12.4 | 619000 | -8.83 | 1.01 | -8.66 | – | – | – | – | – | – | – | – |
| C. thermocellum ScaE6 Coh (type-II cohesin of scaffoldin ScaE) (domain or fragment) | 1.08e+07 | -17.3 | 1.03 | -13 | -6.93 | 1.21e+07 | -8.27 | – | – | – | -25.5 | 7.17e+06 | 1.01 | 9.16e+06 | 1.01 | 1 | 6.96e+06 | 0.99 | – |
| B1 | – | – | – | – | – | – | – | – | – | – | – | – | – | – | – | – | – | – | > 1e+09 |
